The nanobody polyreactivity screen of Harvey et al. (2022)

Assay: yeast display, Sf9 membrane polyspecificity reagent, FACS + sequencing; frameworks hold sequencing errors
Method in brief: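 Using colony PCR, genes from sorted yeast display clones were amplified, then sequenced on MiSeq at 2 × 250 and filtered by CDR length. The clones had been stained with 10% biotinylated, detergent-solubilized Sf9 membrane reagent for 1 hour at 4 °C and sorted by FACS into low and high (top ~1%) gates on anti-HA and streptavidin fluorescence. Polyreactivity labels come from the gate of origin.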
In the case of “QVQLVESGGGLVQAGGSLRLSFASSGSTFYYNAMGWYRQAPGKERDLVARISRSGGSTYADSVKGRFTISRDNAKNTVYFQMNSLKPEDTAVSYCNADAYGTPEFTSYAVRYDYGGQGTQVTVSS”, the “polyreactivity (PSR sort gate)” value is reported as “low polyreactivity”. For “QVQLVESGGGLVQAGGSLRLSCAASGFTFGYYAMGWSRQAPGKERELVAAISWSGSRTYYADSVKGRFTISRDNAKNTVYLQMNSLKPEDTAVYYCAAQRYRYLYTSTGWQRYDYYYWGQGTQVTVSS”, the “polyreactivity (PSR sort gate)” value was “high polyreactivity”. In the case of “QVQLVETGGGLVQAGGSLRLSCAASGSIFGAYAMGWYRQAPGKERELVAAITWTAGSTFYADSVKGRFTISRDNAKNTVYLQMNSLKPEDTAVYYCAAEYYTETQWSRYYRYYYWGQGTQVTVSS”, the “polyreactivity (PSR sort gate)” value is reported as “low polyreactivity”. For “QVQLVESGGGLVQAGGSLRLSCAASGITFYVYAMGWYRPAPGKVRELVAAINYDSGSTYYADSVKGRFTISRDNAKNTVYLQMNSLKPEDTAVYYCATDGVNPFYAYDYWGQGTQVTVSS”, the “polyreactivity (PSR sort gate)” value was “low polyreactivity”. In the case of “QVQLVESGGGLVQAGGSLRLSCAASGSIFYGNTMGWYRQAPGKEREFVAAINKSDDSTYYADSVKGRFTISRDNAKNTVYLQMNSLKPEDTAVYYCAADYLGRFDYNYWGQGTQVTVSS”, the “polyreactivity (PSR sort gate)” value is reported as “low polyreactivity”. In the case of “QVQLVESGGGLVQAGGSLRLSCAASGFTFSYYDMGWYRQAPGTERELVAAISWSGGSTYYADSVKGRFTISRDNAKITVYLQMNSLKPEDTAVYYCNTDTDTTSSGYVYWGQGTQVTVSS”, the “polyreactivity (PSR sort gate)” value is reported as “low polyreactivity”. In the case of “QVQLVESGGGLVQAGGSLRISCAASGITLYNYPMGWYRQAPGKERELVAAISLSGGRTYYAESVKGRFTISRDNAKNTVYLQMNSLQTEDTAVYYCAADWLNSDPYNYWGQGTQVTVSS”, the “polyreactivity (PSR sort gate)” value is reported as “low polyreactivity”. In the case of “QVQLQESGGGLVQAGGSPRLSCAASDNIFPDSVRCWYRQAPGKERELVATIGFGATTNYADSVKGRFTISRDNAKNTVYLQMNSLKPEDTAVYYCAADPLNYEYFCYWGQGTQVTVSS”, the “polyreactivity (PSR sort gate)” value is reported as “low polyreactivity”. In the case of “QVQLVESGGGLVQAGGSLRLSCAASGSIFHRYAMGWYTQAPGKERELVAAISWSGGSTYYADSVKGRFTISRDNAKNTVYLQMNSLKPEDTAVYYCNRVAWNYGFGSSAYGYWGQGTQVTVSS”, the “polyreactivity (PSR sort gate)” value is reported as “high polyreactivity”. For “QVQLVESGGGLVQAGGSLRLSCAASGSIFEYNAMGWYRQAPWKERELVAAITSGGSTNYADSVKGRFTISRDNAKNTVYLQMNSLKPEDTAVYYCAKKYRSVPKYLYRITKYNYWGQGTQVTVSS”, the “polyreactivity (PSR sort gate)” value was “low polyreactivity”. With “QVQLVESGGGLVQAGGSLRLSCAASGRIVHQYAMGWNRQAPGKERELVAAITTRGTSTYYADSVKGRFTISRDNAKNTVYLQMNSLKPEDTAVYYCAAKFFGSVGHVAGDYWGQGTLVTVSS” the “polyreactivity (PSR sort gate)” value was “high polyreactivity”. In the case of “QVQLVESGGGLVQAGGSLRLISAASGIIFWGNAMGWYRQPPGNERELVATITGRGGSTYYADSVKGRFTISRDYAKNTVYLQMNSLKPEDTAVYYCAASGGRPILFYDVWGGIVRHEYWGQGTQVTVSS”, the “polyreactivity (PSR sort gate)” value is reported as “low polyreactivity”. For “QVQLVESGGRLVQAGGSLRLSCAASGRIFARYAMGWYRQAPGKERELLASINSGGNTYYADSVKGRFTISRDNAKNTVYLQMNSLKPEDTAVYYCAAVVGRRPSSRSRFEYDYWGQGTQVTVSS”, the “polyreactivity (PSR sort gate)” value was “low polyreactivity”. For “QVQLVESGGGLVQAGGSLRLSCAASGRIFYVNAMGWYRQAPGKERELVATINYTDGSTYYADSVKGRFTISRDKAKNTVYLQMNSMKPEDTAVYYCAADAVWYDFVAYWTTYYYWGPGTQVTVSS”, the “polyreactivity (PSR sort gate)” value was “low polyreactivity”. In the case of “QDQLVESGGGLVQAGGSLRRSCAASGFTFFIYAMGWYRQAPGKEREFVAAITGSGGSTYYADSVKGRFTISRDNAKNTVYLQMNRLKPEDTAVYYCNKLSYGRSGYWGQGTQVTVSS”, the “polyreactivity (PSR sort gate)” value is reported as “high polyreactivity”. In the case of “QVHLVESGGGLVQAGGSLRLSCAASGYIFHVYAMGWYRQAPGKERELVAAITSSGGSKYYADSVKGRFTISRDNAKNTVYLQMNCLKPEDTAVYYCAARTRYISGRQTGYDYWGQGTQVTVSS”, the “polyreactivity (PSR sort gate)” value is reported as “high polyreactivity”. For “QVQLVESGGGLVQAGGSLRLSCAASGRTFRYYAMGWYRQAPGKVRELVAAISWNGANTYYADSVKGRFTISRDNAKNTVYLQMNSLKPEDTAVYYCAATYYRWKGYDYWGQGTQVTVSS”, the “polyreactivity (PSR sort gate)” value was “high polyreactivity”. For “QFQLVESGGGLVQAGGSLSLSCAASGSTLQSYAMGWYRQAPGKERELVAGIRISGGNTRYADSVKGRFTISRDNAKNTVYLQMNSLIPEDTAVYYCAALTGFYNLRPYGYWGQGTQVTVSS”, the “polyreactivity (PSR sort gate)” value was “high polyreactivity”. In the case of “QVQLVESGRGLVLAGGSLRLSCAASGRIFRVNAMGWYRQAPGKERELVAAISRGGNTYYADSVKGRFTISRDNEKNTVSLQMNSLKPEDTAVYYCAASRSWPRMDYWGQGTQVSVSS”, the “polyreactivity (PSR sort gate)” value is reported as “high polyreactivity”. In the case of “QVQLVESGGGLVQAGGSLRLSCAASRRTFYYAMGWYRQAPWKERYADSVKGRFTISRDNAKNTVYLQMNSLKPVDTAVYYCAAKVPEPPSLDESDYWGQGTQVTVSS”, the “polyreactivity (PSR sort gate)” value is reported as “low polyreactivity”. With “QVQLQESGGLVQAGCLRLSCAASGSVSYHEAMGWYRQAPGKERELVATISFGANTNYADSVKGRFTISRDNAKNTVYLQMNSLKPEDTAVYYCAAESLFDDYYGYWGQGTQVTVSS” the “polyreactivity (PSR sort gate)” value was “low polyreactivity”. For “QVQLVESGGGLVQAGGSLRLSCAASGRTFGDNAMGWYRQAPWKERELVAAISRSGRTYYADSVKGRFTISRDNAKNTVYLQMNSLKPEYTAVYYCNTPYAHYVTHGLDYWGQGTQVTVSS”, the “polyreactivity (PSR sort gate)” value was “high polyreactivity”. With “QVQLVESGGGLVQAGGSLRLSCAASGLTFNFYAKGWYRQAPGKEREFVAAISRSGGSTHYADSVKGRFTISRDYAKYTVYLQMYSLKPEDTAVYYCAADGGRKNYDYWGQGTQVTVSS” the “polyreactivity (PSR sort gate)” value was “high polyreactivity”. With “QVQLVESGGGLVQAGGSLRLSCAASGSTFSGYAKGWYRQAPGKERELVAAINWNGGRTYYADSVKGRFTISRDNAKNTVYLQMNSLKPEDTAVYYCNKQSPRGRSAVYKYDYWGQGTQVTVSS” the “polyreactivity (PSR sort gate)” value was “high polyreactivity”. With “QVQLVESGGGLVQAGGSLRLSCAASGSTFKRYAMGWYRQAPGKERELVAAISTRGSTYYADSVKGRFTISRDNAKNTVYFQMNSLKPEDTAVYYCIARQALVWKWYWYSPGYDYWGQGTQVTVSS” the “polyreactivity (PSR sort gate)” value was “low polyreactivity”. With “HVQLVESAGGLVQAGGSLRVSCAASGRTFEDNAMGWSRPAPGKERELVAAISSAGSTNYADSVKGRFTISRDNAKNTVYLQMTSLKPEDTAVYYCNATVYWPYDWRTSDYWGHGTQVTVSS” the “polyreactivity (PSR sort gate)” value was “low polyreactivity”. For “QVQLVESGGGLVQAGRSLRLSCAASGRTFLVYAMGWYRQAPGKERELVAVINSGTSTNYADSVKGRFTISRDNAKNTVYLQMNSQKPEDTAVYYCATAYRRRDRHYYWGQGTQVTVSS”, the “polyreactivity (PSR sort gate)” value was “low polyreactivity”. With “QVQLVESGGGLVQAGGSLRLSCAASGFTFRYYVMGWYRQSPGKERELVASISRAGSTTNYADSVKGRFTISRDNAKNTVYLQMNSLNPEDTAVYYCNVVITPGYSYDISRGEGYWGQGTQVTVSS” the “polyreactivity (PSR sort gate)” value was “high polyreactivity”. For “QVQLVESGGGLVQAGGSLRLSCAASGFTFTKNAMGWYRQAPGKEREMVAAITWRGGSTYYADSVKGRFTISRDNAKNTVYLQMNSLKPEDTAVYYCAADGGSLYDWGQGTQVTVSS”, the “polyreactivity (PSR sort gate)” value was “low polyreactivity”. In the case of “QVQLVESGGGLVQAGGSLRLICAASGRIFGYNAMGWSRQAPGKERELVAAIRGSGSTYYADSVKGRFTISRDNAKNTVYLQMNSLKPEDTAVYYCAARTSSTKYYYWGQGTQVTVSS”, the “polyreactivity (PSR sort gate)” value is reported as “high polyreactivity”. In the case of “QVQLVESGGGFVQAGGSHRLSCASSGRTFVLYTMGLYRQAPGKERELVAVGSTYYADSVKGRFTISRDNAKNTVYLQMNSLKPEDTALYYCNKPGNYLWRRSWDFYYWGQGTQVTVST”, the “polyreactivity (PSR sort gate)” value is reported as “high polyreactivity”. In the case of “QVHLVESGGGLVQAGGSLRLSCAASGSTFYYAMGLYRKAPGKERELVASITFSTGSTYYADSVKGRFTISRDNAKNTVLLQMNSLKPEDTAVYYCATGVDTFSLSVEHDSWGQGTQVTVSS”, the “polyreactivity (PSR sort gate)” value is reported as “low polyreactivity”. In the case of “QVQLVESGGGLVQAGGSLRLSCAASGRILSVYAMGWYRQAPGKERELVAAIDYSGGSTNYADSVKGRFTISRDNAKNTVYLQMNSLKPEDTAVYYCNREGGAIAWRYLLEYLYSWGQGTQVTVSS”, the “polyreactivity (PSR sort gate)” value is reported as “low polyreactivity”. For “QVQLVESGGGLVQAGGSLRLSCAASGRTFYWYTMGWYRQAPGKERELVAAISIGGITSYADSVKGRFTISRDNAKNTVYLQMNSLKPEDTAVYYCAAESACSRPYFNSIHRRDSWGQGTQVTVSS”, the “polyreactivity (PSR sort gate)” value was “low polyreactivity”. In the case of “QVQLVESGGGLVQAGGSLRLSCAASGRTFLQYAMGWYRQAPGKERELVATISFSGGSTYADSVKGRFTISRDNAKNTVYLQMNSLKPEDTAVYYCNAGIRYFVVGRSSYDYWGQGTQVTVSS”, the “polyreactivity (PSR sort gate)” value is reported as “low polyreactivity”. With “QVQLVESGGGLVQAGGSLRLSCAASGSTFSKNAMGWYRQAPGKERELVAAINWSTGSTHYADSVKGRFTISRDNAKNTVYLQMNRLKPEDTAVYYCAAEGPKQYDYWGQGTQVTVSS” the “polyreactivity (PSR sort gate)” value was “low polyreactivity”. With “QVQLVESGGGLVQAGGSLRLSCAASGSIFPENAMGWYRQAPGKERELVAAINRGGSTYYADSVKGRFTISRDNAKNTVYLQMNSLKPVDTAVYYCAAEYSGWGYIFNYWGQGTQVTVSS” the “polyreactivity (PSR sort gate)” value was “low polyreactivity”. For “QVQLVESGGGLDQARGSLRLSCAASGSTFGRYAIGWYRQAHGKERELVAAINSRGGRTYYADSVKGRFTISRDNAKNTVYLQMNSLKPEVTAVYYCAAPTGPKGYYSDRGDSWGQGTQVTLSS”, the “polyreactivity (PSR sort gate)” value was “low polyreactivity”. With “QVQLVDSGGGLVQAGGSLRLSCAASGSIFTDNAMGWYIQAPGKERDLVAAITGRGGNTYYADSLKGRFPISRDNAKNTVYLQMNSLKPEDTAVYYCAARIFRTRKPLGYWGQGTQVTVSS” the “polyreactivity (PSR sort gate)” value was “high polyreactivity”. For “QVQLVESGGGLVQAGGSLRLSCAASGRTFLYNAMGWYRQAPGKERELVAAIRRGSSTYYADSVKGRFTISRDNAMNTVYLQMNSLKPEDTAVYYCAARGRYRIGPGRYGKRYDYWGQGTQVTVSS”, the “polyreactivity (PSR sort gate)” value was “high polyreactivity”. For “QVQLVESGGGLVQAGGSLRLSCAASGIILTQNAMGWYRQEPGKVRELVAAITESGARTYYADSVMGRFTISRDTAQNTVYLQMNSLKPEATAVYYCATEGPWGYDYWGIGTQVTVSS”, the “polyreactivity (PSR sort gate)” value was “low polyreactivity”. For “QVQLVESGGGLVQAGGSLRLSCAASGSIFIPYAMGWYRQAPGKERELVAAISRRGGSTYYADSVKGRFTISRDNAKNTVYLQMNSLKPEDTAVYYCNKDVNAYGYFEYYYWGQGTQVTVSS”, the “polyreactivity (PSR sort gate)” value was “low polyreactivity”. In the case of “QVQLVESGGGLVQAGGSLRLSCAASGRTFRTYAMGWYRQAPGKERELVASISVGGGSTYYADSVKGRFTISRDNAKNTVYLQMNSLKPEDTAVYYCAVRSYSPRSRGMGYWGQGTQVTVSS”, the “polyreactivity (PSR sort gate)” value is reported as “high polyreactivity”.
